Assay results: paper PMC10786891, “Massively parallel profiling of RNA-targeting CRISPR-Cas13d”
Changes are numbered by the printed parent chain.

B1: target 1 MT 5'PFS UUA 3'PFS UUC (mixed)
RNA 1: CACCCGUGCAAAAAUGCAGGGGUCUAAAACUGAGCGGAUAACCUCUCUAUGG
RNA 2: GGGAAUGGAUCCACAUCUACGAAUUCUUACCAUAGAGAGGUUAUCCGCUCAUUCAGAUCGGAAGAGCACACGU
B2: target 1 MT 5'PFS CAC 3'PFS UUU (mixed)
RNA 1: B1 RNA 1
RNA 2: B1 RNA 2 with U27C, U28A, A29C, C54U
B3: target 1 MT 5'PFS GUG 3'PFS CCC (mixed)
RNA 1: B1 RNA 1
RNA 2: B1 RNA 2 with U27G, A29G, U52C, U53C
B4: target 1 del5,del13 (mixed)
RNA 1: B1 RNA 1
RNA 2: GGGAAUGGAUCCACAUCUACGAAUUCGUACCAUAGAGAGUUAUCCCUCACCGAGAUCGGAAGAGCACACGU
B5: target 1 MT 5'PFS GAG 3'PFS ACA (mixed)
RNA 1: B1 RNA 1
RNA 2: B1 RNA 2 with U27G, U28A, A29G, U52A, U53C, C54A
B6: target 1 MT 5'PFS UCG 3'PFS ACC (mixed)
RNA 1: B1 RNA 1
RNA 2: B1 RNA 2 with U28C, A29G, U52A, U53C
B7: target 1 MT 5'PFS UCC 3'PFS UAG (mixed)
RNA 1: B1 RNA 1
RNA 2: B1 RNA 2 with U28C, A29C, U53A, C54G
B8: target 1 MT 5'PFS GGA 3'PFS UGU (mixed)
RNA 1: B1 RNA 1
RNA 2: B1 RNA 2 with U27G, U28G, U53G, C54U
B9: target 1 insU 3' of 18,insA 3' of 12 (mixed)
RNA 1: B1 RNA 1
RNA 2: GGGAAUGGAUCCACAUCUACGAAUUCGUACCAUAUGAGAGGAUUAUCCGCUCACCGAGAUCGGAAGAGCACACGU
B10: target 1 MT 5'PFS UCG 3'PFS ACA (mixed)
RNA 1: B1 RNA 1
RNA 2: B1 RNA 2 with U28C, A29G, U52A, U53C, C54A
B11: target 1 MT 5'PFS GGA 3'PFS AUG (mixed)
RNA 1: B1 RNA 1
RNA 2: B1 RNA 2 with U27G, U28G, U52A, C54G
B12: target 1 MT 5'PFS GCA 3'PFS CUG (mixed)
RNA 1: B1 RNA 1
RNA 2: B1 RNA 2 with U27G, U28C, U52C, C54G
B13: target 1 MT 5'PFS GAG 3'PFS ACG (mixed)
RNA 1: B1 RNA 1
RNA 2: B1 RNA 2 with U27G, U28A, A29G, U52A, U53C, C54G
B14: target 1 MT 5'PFS UGC 3'PFS UAU (mixed)
RNA 1: B1 RNA 1
RNA 2: B1 RNA 2 with U28G, A29C, U53A, C54U
B15: target 1 MT 5'PFS GUG 3'PFS CCA (mixed)
RNA 1: B1 RNA 1
RNA 2: B1 RNA 2 with U27G, A29G, U52C, U53C, C54A
B16: target 1 MT 5'PFS GCG 3'PFS ACC (mixed)
RNA 1: B1 RNA 1
RNA 2: B1 RNA 2 with U27G, U28C, A29G, U52A, U53C
B17: target 1 MT 5'PFS GUG 3'PFS CCU (mixed)
RNA 1: B1 RNA 1
RNA 2: B1 RNA 2 with U27G, A29G, U52C, U53C, C54U
B18: target 1 MT 5'PFS GGA 3'PFS AUC (mixed)
RNA 1: B1 RNA 1
RNA 2: B1 RNA 2 with U27G, U28G, U52A
B19: target 1 MT 5'PFS GCA 3'PFS CUC (mixed)
RNA 1: B1 RNA 1
RNA 2: B1 RNA 2 with U27G, U28C, U52C
B20: target 1 MT 5'PFS CAA 3'PFS UGA (mixed)
RNA 1: B1 RNA 1
RNA 2: B1 RNA 2 with U27C, U28A, U53G, C54A
B21: target 1 MT 5'PFS UUA 3'PFS UUG (mixed)
RNA 1: B1 RNA 1
RNA 2: B1 RNA 2 with C54G
B22: target 1 MT 5'PFS AAU 3'PFS UGA (mixed)
RNA 1: B1 RNA 1
RNA 2: B1 RNA 2 with U27A, U28A, A29U, U53G, C54A
B23: target 1 MT 5'PFS GUG 3'PFS CUG (mixed)
RNA 1: B1 RNA 1
RNA 2: B1 RNA 2 with U27G, A29G, U52C, C54G
B24: target 1 insU 3' of 2,insC 3' of 1 (mixed)
RNA 1: B1 RNA 1
RNA 2: GGGAAUGGAUCCACAUCUACGAAUUCGUACCAUAGAGAGGUUAUCCGCUCUACCCGAGAUCGGAAGAGCACACGU
B25: target 1 MT 5'PFS UCC 3'PFS UAU (mixed)
RNA 1: B1 RNA 1
RNA 2: B1 RNA 2 with U28C, A29C, U53A, C54U
B26: target 1 insA 3' of 11,insC 3' of 8 (mixed)
RNA 1: B1 RNA 1
RNA 2: B24 RNA 2 with U42A, A43U, U44A, C45U, G47C, U49G, A52C, C53A
B27: target 1 MT 5'PFS GAG 3'PFS ACU (mixed)
RNA 1: B1 RNA 1
RNA 2: B1 RNA 2 with U27G, U28A, A29G, U52A, U53C, C54U
B28: target 1 MT 5'PFS GGA 3'PFS AUU (mixed)
RNA 1: B1 RNA 1
RNA 2: B1 RNA 2 with U27G, U28G, U52A, C54U
B29: target 1 insC 3' of 12,insC 3' of 8 (mixed)
RNA 1: B1 RNA 1
RNA 2: B24 RNA 2 with U41C, A43U, U44A, C45U, G47C, U49G, A52C, C53A
B30: target 1 MT 5'PFS CCA 3'PFS UAA (mixed)
RNA 1: B1 RNA 1
RNA 2: B1 RNA 2 with U27C, U28C, U53A, C54A
B31: target 1 MT 5'PFS GGA 3'PFS AUA (mixed)
RNA 1: B1 RNA 1
RNA 2: B1 RNA 2 with U27G, U28G, U52A, C54A
B32: target 1 MT 5'PFS GGA 3'PFS UGC (mixed)
RNA 1: B1 RNA 1
RNA 2: B1 RNA 2 with U27G, U28G, U53G
B33: target 1 MT 5'PFS UUG 3'PFS UUG (mixed)
RNA 1: B1 RNA 1
RNA 2: B1 RNA 2 with A29G, C54G
B34: target 1 MT 5'PFS CAU 3'PFS UCA (mixed)
RNA 1: B1 RNA 1
RNA 2: B1 RNA 2 with U27C, U28A, A29U, U53C, C54A
B35: target 1 MT 5'PFS CAU 3'PFS ACU (mixed)
RNA 1: B1 RNA 1
RNA 2: B1 RNA 2 with U27C, U28A, A29U, U52A, U53C, C54U
B36: target 1 MT 5'PFS CAU 3'PFS UCU (mixed)
RNA 1: B1 RNA 1
RNA 2: B1 RNA 2 with U27C, U28A, A29U, U53C, C54U
B37: target 1 MT 5'PFS GGA 3'PFS UGA (mixed)
RNA 1: B1 RNA 1
RNA 2: B1 RNA 2 with U27G, U28G, U53G, C54A
B38: target 1 MT 5'PFS GUG 3'PFS CCG (mixed)
RNA 1: B1 RNA 1
RNA 2: B1 RNA 2 with U27G, A29G, U52C, U53C, C54G

Target: T1, EsCas13d, nuclease-dead (Eubacterium siraeum, UniProt B0MS50, R295A;H300A;R849A;H854A)
T1 sequence: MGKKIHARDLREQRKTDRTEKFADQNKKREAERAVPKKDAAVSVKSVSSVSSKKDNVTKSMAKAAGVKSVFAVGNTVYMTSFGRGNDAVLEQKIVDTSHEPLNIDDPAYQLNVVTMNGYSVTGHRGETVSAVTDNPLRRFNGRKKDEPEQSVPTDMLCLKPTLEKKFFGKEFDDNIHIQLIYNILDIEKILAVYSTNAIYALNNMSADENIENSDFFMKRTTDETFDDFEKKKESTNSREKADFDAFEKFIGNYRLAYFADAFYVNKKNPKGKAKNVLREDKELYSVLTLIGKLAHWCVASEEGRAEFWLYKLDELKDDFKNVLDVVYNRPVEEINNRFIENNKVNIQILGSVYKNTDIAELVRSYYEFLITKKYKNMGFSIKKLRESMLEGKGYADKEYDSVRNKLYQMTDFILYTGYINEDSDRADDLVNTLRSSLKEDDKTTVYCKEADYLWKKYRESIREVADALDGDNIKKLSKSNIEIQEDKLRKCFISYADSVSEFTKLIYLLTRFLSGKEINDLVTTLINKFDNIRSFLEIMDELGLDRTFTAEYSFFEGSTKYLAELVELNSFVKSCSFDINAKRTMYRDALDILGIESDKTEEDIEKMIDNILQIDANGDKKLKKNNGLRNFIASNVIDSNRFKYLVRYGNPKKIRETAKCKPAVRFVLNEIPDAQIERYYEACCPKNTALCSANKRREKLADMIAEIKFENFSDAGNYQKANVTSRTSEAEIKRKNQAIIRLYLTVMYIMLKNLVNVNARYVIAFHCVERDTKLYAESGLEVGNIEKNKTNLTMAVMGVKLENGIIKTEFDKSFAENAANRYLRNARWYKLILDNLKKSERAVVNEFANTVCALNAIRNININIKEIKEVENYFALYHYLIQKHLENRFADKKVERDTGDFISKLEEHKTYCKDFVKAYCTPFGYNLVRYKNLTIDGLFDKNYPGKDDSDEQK
Assay: crRNA (strand 1, pre-loaded); Mg2+; 40 mM Tris-HCl pH 7.5, 150 mM NaCl, 6 mM MgCl2, 1 mM DTT, 0.1% Tween-20, 0.2 mg/ml BSA; 25 C; 10 min per concentration, then washed
Settings: tags: His6-TwinStrep-SUMO cleaved; N-terminal SNAP kept (SNAP-Surface 488); label: 3' end held by stalled T7 RNA polymerase

Binder | Kd [nM]
B1 | 17.5 ± 3.9
B2 | 7.15 ± 2.4
B3 | 23 ± 4
B4 | 11.5 ± 0.9
B5 | ~43
B6 | 32.5 ± 14
B7 | 49 ± 22.5
B8 | 48 ± 13
B9 | 63 ± 14
B10 | 36 ± 8
B11 | 34.5 ± 6.5
B12 | 11.9 ± 3.35
B13 | 32 ± 8.5
B14 | 13.8 ± 5
B15 | 46 ± 7.5
B16 | 20 ± 8.5
B17 | 10.6 ± 1.1
B18 | 22.5 ± 9
B19 | ~19.5

Binder | Kd [nM]
B20 | ~41
B21 | 11.8 ± 1.2
B22 | 61 ± 17
B23 | 10.3 ± 0.6
B24 | 11.1 ± 0.5
B25 | ~12.6
B26 | 16.7 ± 1.1
B27 | 24.9 ± 4.75
B28 | 17.6 ± 3.55
B29 | 32.1 ± 2.8
B30 | 3.85 ± 1.9
B31 | 29 ± 7
B32 | 8.3 ± 1.1
B33 | 18.2 ± 3.2
B34 | ~35
B35 | 61.5 ± 26
B36 | ~65
B37 | 16.2 ± 3.15
B38 | 11.7 ± 1.05
